Assay results published in PMC3025556.

Tests used:
Nip7p (yeast) = target: T1, Nip7p (yeast) (Saccharomyces cerevisiae, UniProt Q08962 1-181); test: EMSA
T1 sequence: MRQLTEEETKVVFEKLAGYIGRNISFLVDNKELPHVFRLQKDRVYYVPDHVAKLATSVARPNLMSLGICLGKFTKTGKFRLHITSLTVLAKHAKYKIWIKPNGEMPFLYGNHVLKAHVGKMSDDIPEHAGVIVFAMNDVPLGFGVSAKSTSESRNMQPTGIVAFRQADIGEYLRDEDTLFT

[1] = target: T2, NIP7 (human, recombinant) (Homo sapiens, UniProt Q9Y221 1-180); test: EMSA
T2 sequence: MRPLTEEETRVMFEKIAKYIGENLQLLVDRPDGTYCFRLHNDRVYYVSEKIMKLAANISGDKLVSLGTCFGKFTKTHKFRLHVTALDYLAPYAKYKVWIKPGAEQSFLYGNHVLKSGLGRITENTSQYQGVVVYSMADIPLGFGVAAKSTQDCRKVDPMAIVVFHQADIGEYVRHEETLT

B1: poly-U(20) (ssRNA)
RNA: UUUUUUUUUUUUUUUUUUUU
- binding result (Nip7p (yeast)): binds

B2: poly-AU(21) (ssRNA)
RNA: UUAUUAUUUAUUUAUUAUUUA
- binding result [1]: binds
